The values that follow come from EP4725965A1 (Sunshine Guojian Pharmaceutical (Shanghai) Co., Ltd., dated 2026).

The target of experiment [1] is human BDCA2 on cells (293FT-BDCA2 stable transfectant) (human) (UniProt Q8WTT0). As to the kind of experiment: flow cytometry (FACS) on 293FT-BDCA2 cells.
The target in experiment [2] is T1, human BDCA2-his protein (human, UniProt Q8WTT0 45-213).
T1 construct: also called BDCA2-his antigen protein
T1 sequence: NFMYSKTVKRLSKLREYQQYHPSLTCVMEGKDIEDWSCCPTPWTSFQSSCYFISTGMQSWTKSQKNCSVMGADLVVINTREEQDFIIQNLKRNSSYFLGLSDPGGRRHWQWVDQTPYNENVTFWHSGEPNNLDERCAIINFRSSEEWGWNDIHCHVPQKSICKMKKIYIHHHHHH
The experiment is described as follows: SPR, Biacore 8K, antibody captured on Protein A chip, BDCA2-his as analyte.

In a further experiment the target is T2, human BDCA2-Fc protein (human, UniProt Q8WTT0 45-213).
T2 sequence: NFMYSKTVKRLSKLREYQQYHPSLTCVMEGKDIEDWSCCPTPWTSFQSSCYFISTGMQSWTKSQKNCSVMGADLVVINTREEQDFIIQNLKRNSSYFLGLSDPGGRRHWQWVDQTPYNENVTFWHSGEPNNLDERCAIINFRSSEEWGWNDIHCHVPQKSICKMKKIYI
As to the kind of experiment: ELISA, BDCA2-Fc coated at 1 ug/mL.

For experiment [3], the target named is human BDCA2 on cells (293FT-BDCA2 stable transfectant) (human) (UniProt Q8WTT0). As to the kind of experiment: flow cytometry (FACS) on 293FT-BDCA2 cells. This is another data set of the same source. For orientation: Flow cytometry measures light scatter and fluorescence of single cells or particles in a stream.
Experiment [4] has as its target T1, human BDCA2-his protein. As to the kind of experiment: ELISA, BDCA2-his coated at 0.1 ug/mL, anti-human Fc HRP. (ELISA stands for enzyme-linked immunosorbent assay.)
For experiment [5], the target named is T3, human BDCA2 on cells (293FT-BDCA2 stable transfectant) (human, UniProt Q8WTT0 1-213).
T3 construct: whole, on cells; Also used here as the target for the PBMC assays, where native BDCA2 stands on pDCs; also called CLEC4C
T3 sequence (looked up): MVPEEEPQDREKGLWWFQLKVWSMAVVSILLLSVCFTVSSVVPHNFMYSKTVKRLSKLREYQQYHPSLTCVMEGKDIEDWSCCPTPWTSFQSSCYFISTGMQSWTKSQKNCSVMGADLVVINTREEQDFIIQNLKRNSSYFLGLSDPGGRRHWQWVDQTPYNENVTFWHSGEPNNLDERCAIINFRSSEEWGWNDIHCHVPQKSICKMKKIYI
The experiment is described as follows: flow cytometry (FACS) on 293FT-BDCA2 cells.

Positions count from the first letter of the chain named. Where two headings read alike, the source gives them in different places.

As for “positive control antibody Litifilimab (BIIB059, 24F4A)”, the EC50 in experiment [1] is 0.103 µg/mL; with human BDCA2-Fc protein, 0.0346 µg/mL; in the experiment with human BDCA2-Fc protein (record 2) it was 0.0463 µg/mL; in experiment [3] it was 0.124 µg/mL. The molecule also registered a Kd with human BDCA2-his protein [2] of 0.087 nM. The same molecule displayed a koff with human BDCA2-his protein [2] of 0.000121 s⁻¹. In the experiment with human BDCA2-his protein [2], this molecule returned an on-rate (kon) of 1.39e+06 M⁻¹ s⁻¹.

B1: humanized antibody 230 (antibody, V domains shown)
VH: QVQLVQSGAEVKKPGASVKVSCKASGYTFTSYIIHWVRQAPGQGLEWMGTIYPGNGDTSYNQKFKGRVTMTRDTSTSTVYMELSSLRSEDTAVYYCARMGDNEYFDYWGQGTLVTVSS
VL: DIQMTQSPSSLSASVGDRVTITCRASGNIHNYLAWYQQKPGKAPKLLLYDAETLADGVPSRFSGSGSGTDYTLTISSLQPEDFATYYCQHFWSTPYTFGGGTKVEIK
notes: Human IgG1 constant region and human kappa chain constant region; also called 230 antibody; parental monoclonal antibody 230
Take B1: in the experiment with human BDCA2-his protein [2], binding was characterised by a dissociation constant (Kd) of 0.0768 nM, the koff was 0.00131 s⁻¹ and the association rate constant (kon) amounted to 1.7e+07 M⁻¹ s⁻¹.

B2: antibody 237011 (antibody, human IgG1, V domains shown)
VH: B1 VH with I33L, N55G
VL: B1 VL with D56E
B2: in the experiment with human BDCA2-his protein [2], the Kd was found to be 0.0259 nM, the koff was determined as 0.000652 s⁻¹ and the kon came to 2.52e+07 M⁻¹ s⁻¹.

B3: antibody 2391 (antibody, human IgG1, V domains shown)
VH: B1 VH with N55G
VL: B1 VL with D56E
B3: in the experiment with human BDCA2-his protein [2], binding was put at a Kd of 0.0357 nM, the koff was 0.000874 s⁻¹ and the on-rate constant (kon) was found to be 2.44e+07 M⁻¹ s⁻¹.

B4: 230IL-NR-DE (antibody, V domains shown)
VH: B1 VH with I33L, N55R
VL: B1 VL with D56E
notes: Linked to the constant region of the IgG1 subtype
As to B4, the binding result in the experiment with human BDCA2-his protein [4] is recorded as “binds”.

B5: 230IL-DI (antibody, V domains shown)
VH: B1 VH with I33L
VL: B1 VL with D56I
notes: as for B4
Consider B5, for which, in the experiment with human BDCA2-his protein [4], the binding result is “binds”.

B6: 230-I33L (antibody, V domains shown)
VH: B1 VH with I33L
VL: B1 VL
notes: Single-point mutant of humanized antibody 230 (human IgG1/kappa)
Consider B6, for which, in the experiment with human BDCA2-his protein [4], the binding result is listed as “binds”.

B7: 230IL-NR-DI (antibody, V domains shown)
VH: B1 VH with I33L, N55R
VL: B1 VL with D56I
notes: as for B4
For B7, in the experiment with human BDCA2-his protein [4], the binding result is reported as “binds”.

B8: 230-N55S (antibody, V domains shown)
VH: B1 VH with N55S
VL: B1 VL
notes: as for B6
B8: the binding result with human BDCA2-his protein [4] is “binds”.

B9: 230NR-DI (antibody, V domains shown)
VH: B1 VH with N55R
VL: B1 VL with D56I
notes: as for B4
As to B9, the binding result with human BDCA2-his protein [4] is given as “binds”.

B10: 230-N55G (antibody, V domains shown)
VH: B1 VH with N55G
VL: B1 VL
notes: as for B6
With B10, the binding result with human BDCA2-his protein [4] is given as “binds”.

B11: 230IL-NG-DI (antibody, V domains shown)
VH: B1 VH with I33L, N55G
VL: B1 VL with D56I
notes: as for B4
On to B11, for which the binding result with human BDCA2-his protein [4] is “binds”.

B12: 230NG-DI (antibody, V domains shown)
VH: B1 VH with N55G
VL: B1 VL with D56I
notes: as for B4
On to B12, for which the binding result with human BDCA2-his protein [4] is “binds”.

B13: 230-N55A (antibody, V domains shown)
VH: B1 VH with N55A
VL: B1 VL
notes: as for B6
Regarding B13, the binding result in the experiment with human BDCA2-his protein [4] is recorded as “binds”.

B14: antibody 230 mutant with light chain CDR2 DAETLAD changed to DAETLAE (antibody, V domains shown)
VH: B1 VH
VL: B1 VL with D56E
notes: Single-point mutant of humanized antibody 230; also called 230 antibody-DE
On to B14, for which, in the experiment with human BDCA2-his protein [4], the binding result is listed as “binds”.

B15: 230NR-DE (antibody, V domains shown)
VH: B1 VH with N55R
VL: B1 VL with D56E
notes: as for B4
Consider B15, for which, in the experiment with human BDCA2-his protein [4], the binding result is given as “binds”.

B16: 230IL-DE (antibody, V domains shown)
VH: B1 VH with I33L
VL: B1 VL with D56E
notes: as for B4
For B16, the binding result with human BDCA2-his protein [4] is given as “binds”.

B17: 230-N55R (antibody, V domains shown)
VH: B1 VH with N55R
VL: B1 VL
notes: as for B6
For the molecule B17, the binding result with human BDCA2-his protein [4] is on record as “binds”.

B18: antibody 230 mutant with light chain CDR2 DAETLAD changed to DAETLAI (antibody, V domains shown)
VH: B1 VH
VL: B1 VL with D56I
notes: Single-point mutant of humanized antibody 230; also called 230 antibody-DI
Turning to B18, in the experiment with human BDCA2-his protein [4], the binding result is “binds”.

B19: 23C10A6B5 (antibody, V domains shown)
VH: QVQLQQPGADLVKPGASVMMSCKASGYTFTSYIIHWVKQTPGQGLEWIGTIYPGNGDTSYNQKFKGKATLTADKSSSTAYMQLSSLTSEDSAVYYCARMGDNEYFDYWGQGTTLTVSS
VL: DIQMTQSPASLSASVGETVTITCRASGNIHNYLAWYQQKQGKSPQLLVYDAETLADGVPSRFSGSGSGTQYSLNINSLQPEDFGSFYCQHFWSTPYTFGGGTKLEIK
notes: Murine monoclonal antibody from hybridoma; also called hybridoma clone 23C10A6B5
Regarding B19, the concentration for a half-maximal effect (EC50) in experiment [5] was 0.0835 µg/mL; with human BDCA2-Fc protein it was 0.0201 µg/mL.

Usually EC50 stands for the concentration giving half of the maximal effect. Broadly, the Kd is the equilibrium constant for the complex coming apart. A high value points to a looser complex. One may read the koff as the rate constant with which the complex falls apart. Higher therefore signals a short-lived complex. The kon is the rate constant with which the complex forms. Higher therefore signals fast association.
